# Experimental data as given in WO2001004159A1.
# Tests used:
# [1] = target: hPF4/heparin complex (human) (UniProt P02776); experiment: cell-based or functional assay
# [2] = target: platelet Fc receptor Fc-gamma RIIA (human) (UniProt P12318); experiment: cell-based or functional assay
# [3] = target: hPF4/heparin complex (human) (UniProt P02776); experiment: ELISA, wells coated with hPF4/heparin complex
# [4] = target: hPF4/heparin complex (human) (UniProt P02776); experiment: ELISA, wells coated with hPF4 with or without heparin
# [5] = target: hPF4/heparin complex (human) (UniProt P02776); experiment: ELISA (A405), KKO below 0.14 micrograms per milliliter
# Sequence of UniProt P02776 (P02776 32-101, one chain of several): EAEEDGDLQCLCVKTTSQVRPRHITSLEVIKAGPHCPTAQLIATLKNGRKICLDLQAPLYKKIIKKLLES
# Sequence of UniProt P12318 (P12318 34-317, form in doubt): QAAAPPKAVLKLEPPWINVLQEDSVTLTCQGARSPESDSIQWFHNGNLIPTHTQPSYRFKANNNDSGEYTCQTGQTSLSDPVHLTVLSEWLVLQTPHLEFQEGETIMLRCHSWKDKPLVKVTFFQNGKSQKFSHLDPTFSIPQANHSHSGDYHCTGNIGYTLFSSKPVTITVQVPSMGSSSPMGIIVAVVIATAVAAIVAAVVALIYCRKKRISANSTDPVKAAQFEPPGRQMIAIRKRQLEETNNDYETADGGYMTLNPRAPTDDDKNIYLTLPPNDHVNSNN
substance,measurement,setting,value
murine monoclonal antibody KKO,KKO concentration required to initiate 14C-serotonin release (micrograms per milliliter),[1],> 180
same,14C-serotonin release induced by KKO in the presence of the FcγRIIA-specific mAb IV.3,[2],< 5 % release
same,EC50,[3],0.036 µg/mL
same,A405 ratio to hPF4/heparin complex versus hPF4 alone,[4],> 30
same,ratio of binding to PF4/heparin complex vs. binding to PF4 alone,[5],> 400
